B1: Azoarcus group I ribozyme (parent)
chain: GUGCCUUGCGCCGGGAAACCACGCAAGGGAUGGUGUCAAAUUCGGCGAAACCUAAGCGCCCGCCCGGGCGUAUGGCAACGCCGAGCCAAGCUUCGGCGCCUGCGCCGAUGAAGGUGUAGAGACUAGACGGCACCCACCUAAGGCAAACGCUAUGGUGAAGGCAUAGUCCAGGGAGUGGCGAAAGUCACACAAACCGG

Variants of: B1
Test: reverse-splicing fitness (ratio to wild type); higher = more active; in vitro selection; Mg2+ level not given
Method in brief: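 An in vitro group I ribozyme library with randomized positions was T7-transcribed and gel-purified. In triplicate, 10 pmol RNA in EPPS pH 7.5 was reacted with 50 pmoles of a 30-nt RNA substrate for 1 h at 37 °C across several added MgCl2 levels (1–48 mM), then stopped with EDTA. Products were reverse transcribed from a substrate-complementary primer, PCR-amplified and sequenced (HiSeq 4000). Fitness is a variant's read proportion after selection over that before, normalised to wild type.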
In the case of GUGCCUUGCGCCGGGAAACCACGCAAGGGAUGGUGUCAAAUUCGGCGAAACCUAAGCGCCCGCCCGGGCGUAUGGCAACGCCGAGCCAAGCUUCGGCGCCUGCGCCGAUGGAGGUGUAGGGACUAGACGGCACCCACCUAAGGCAAACGCUAUGGUGAAGGCAUAGUCGAGGGAGGGGCGAAAGUCACACAAACCGG, the reverse-splicing fitness is reported as 0.00692.
GUGCCUUGCGCCGGGAAACCACGCAAGGGAUGGUGUCAAAUUCGGCGAAACCUAAGCGCCCGCCCGGGCGUAUGGCAACGCCGAGCCAAGCUUCGGCGCCUGCGCCGAUGGAGGUGUAGGGACUAGACGGCACCCACCUAAGGCAAACGCUAUGGUGAAGGCAUAGUCUAGGGAGUGGCGAAAGUCACACAAACCGG showed a reverse-splicing fitness of 0.236.
GUGCCUUGCGCCGGGAAACCACGCAAGGGAUGGUGUCAAAUUCGGCGAAACCUAAGCGCCCGCCCGGGCGUAUGGCAACGCCGAGCCAAGCUUCGGCGCCUGCGCCGAUGGAGGUGUAGGGACUAGACGGCACCCACCUAAGGCAAACGCUAUGGUGAAGGCAUAGUCUAGGGAGAGGCGAAAGUCACACAAACCGG gave a reverse-splicing fitness of 0.0845.
Variant GUGCCUUGCGCCGGGAAACCACGCAAGGGAUGGUGUCAAAUUCGGCGAAACCUAAGCGCCCGCCCGGGCGUAUGGCAACGCCGAGCCAAGCUUCGGCGCCUGCGCCGAUGGAGGUGUAGGGACUAGACGGCACCCACCUAAGGCAAACGCUAUGGUGAAGGCAUAGUCUAGGGAGCGGCGAAAGUCACACAAACCGG has a reverse-splicing fitness of 0.0969.
GUGCCUUGCGCCGGGAAACCACGCAAGGGAUGGUGUCAAAUUCGGCGAAACCUAAGCGCCCGCCCGGGCGUAUGGCAACGCCGAGCCAAGCUUCGGCGCCUGCGCCGAUGGAGGUGUAGGGACUAGACGGCACCCACCUAAGGCAAACGCUAUGGUGAAGGCAUAGUCUAGGGAGGGGCGAAAGUCACACAAACCGG gave a reverse-splicing fitness of 0.011.
Work on GUGCCUUGCGCCGGGAAACCACGCAAGGGAUGGUGUCAAAUUCGGCGAAACCUAAGCGCCCGCCCGGGCGUAUGGCAACGCCGAGCCAAGCUUCGGCGCCUGCGCCGAUGGAGGUGUAGGGACUAGACGGCACCCACCUAAGGCAAACGCUAUGGUGAAGGCAUAGUCCAGGGAGAGGCGAAAGUCACACAAACCGG yielded a reverse-splicing fitness of 0.0836.
With GUGCCUUGCGCCGGGAAACCACGCAAGGGAUGGUGUCAAAUUCGGCGAAACCUAAGCGCCCGCCCGGGCGUAUGGCAACGCCGAGCCAAGCUUCGGCGCCUGCGCCGAUGGAGGUGUAGGGACUAGACGGCACCCACCUAAGGCAAACGCUAUGGUGAAGGCAUAGUCCAGGGAGCGGCGAAAGUCACACAAACCGG the reverse-splicing fitness was 0.117.
For GUGCCUUGCGCCGGGAAACCACGCAAGGGAUGGUGUCAAAUUCGGCGAAACCUAAGCGCCCGCCCGGGCGUAUGGCAACGCCGAGCCAAGCUUCGGCGCCUGCGCCGAUGGAGGUGUAGGGACUAGACGGCACCCACCUAAGGCAAACGCUAUGGUGAAGGCAUAGUCCAGGGAGGGGCGAAAGUCACACAAACCGG, the reverse-splicing fitness was 0.0093.
Work on GUGCCUUGCGCCGGGAAACCACGCAAGGGAUGGUGUCAAAUUCGGCGAAACCUAAGCGCCCGCCCGGGCGUAUGGCAACGCCGAGCCAAGCUUCGGCGCCUGCGCCGAUGGAGGUGUAGUGACUAGACGGCACCCACCUAAGGCAAACGCUAUGGUGAAGGCAUAGUCCAGGGAGUGGCGAAAGUCACACAAACCGG yielded a reverse-splicing fitness of 0.785.
GUGCCUUGCGCCGGGAAACCACGCAAGGGAUGGUGUCAAAUUCGGCGAAACCUAAGCGCCCGCCCGGGCGUAUGGCAACGCCGAGCCAAGCUUCGGCGCCUGCGCCGAUGGAGGUGUAGUGACUAGACGGCACCCACCUAAGGCCAACGCUAUGGUGAAGGCAUAGUCCAGGGAGUGGCGAAAGUCACACAAACCGG gave a reverse-splicing fitness of 0.701.
GUGCCUUGCGCCGGGAAACCACGCAAGGGAUGGUGUCAAAUUCGGCGAAACCUAAGCGCCCGCCCGGGCGUAUGGCAACGCCGAGCCAAGCUUCGGCGCCUGCGCCGAUGGAGGUGUAGUGACUAGACGGCACCCACCUAAGGCCAACGAUAUGGUGAAGGCAUAGUCCAGGGAGUGGCGAAAGUCACACAAACCGG showed a reverse-splicing fitness of 0.0434.
For GUGCCUUGCGCCGGGAAACCACGCAAGGGAUGGUGUCAAAUUCGGCGAAACCUAAGCGCCCGCCCGGGCGUAUGGCAACGCCGAGCCAAGCUUCGGCGCCUGCGCCGAUGGAGGUGUAGUGACUAGACGGCACCCACCUAAGGCCAACGAUAUGGUGAAGGCAUAGUCAAGGGAGUGGCGAAAGUCACACAAACCGG, the reverse-splicing fitness was 0.00208.
GUGCCUUGCGCCGGGAAACCACGCAAGGGAUGGUGUCAAAUUCGGCGAAACCUAAGCGCCCGCCCGGGCGUAUGGCAACGCCGAGCCAAGCUUCGGCGCCUGCGCCGAUGGAGGUGUAGUGACUAGACGGCACCCACCUAAGGCCAACGAUAUGGUGAAGGCAUAGUCAAGGGAGAGGCGAAAGUCACACAAACCGG gave a reverse-splicing fitness of 0.00282.
In the case of GUGCCUUGCGCCGGGAAACCACGCAAGGGAUGGUGUCAAAUUCGGCGAAACCUAAGCGCCCGCCCGGGCGUAUGGCAACGCCGAGCCAAGCUUCGGCGCCUGCGCCGAUGGAGGUGUAGUGACUAGACGGCACCCACCUAAGGCCAACGAUAUGGUGAAGGCAUAGUCAAGGGAGCGGCGAAAGUCACACAAACCGG, the reverse-splicing fitness is reported as 0.00206.
Work on GUGCCUUGCGCCGGGAAACCACGCAAGGGAUGGUGUCAAAUUCGGCGAAACCUAAGCGCCCGCCCGGGCGUAUGGCAACGCCGAGCCAAGCUUCGGCGCCUGCGCCGAUGGAGGUGUAGUGACUAGACGGCACCCACCUAAGGCCAACGAUAUGGUGAAGGCAUAGUCAAGGGAGGGGCGAAAGUCACACAAACCGG yielded a reverse-splicing fitness of 0.00177.

Reference: the RNAGym collection of RNA variant scans (doi:10.1093/molbev/msab373)
